This note sets out measurements from the supplement of paper PMC9170038.

The test system of this series is MS2 coat protein. The series is described as follows: apparent KD of MS2 coat protein; designed switch direction (-1 OFF switch, 1 ON switch): 1; higher = weaker reporter binding. In a few lines:
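The reported apparent KD is a per-design median over clusters, from curve fits of normalised cluster fluorescence. Protein titrations used SNAP-549-labelled MS2 coat protein, doubled from 0.7 or 1.5 nM to 3 µM, in Tris-HCl pH 7.5 buffer with KCl, MgCl2, BSA, DTT, tRNA and Tween-20, with no input, 200 uM small-molecule ligand, or an oligonucleotide input. The RNA switches were transcribed on Illumina chips by stalled E. coli RNA polymerase.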

Where [1] appears, read: Eterna round: R95, input ligand: FMN 200 uM.
Setting [2] is: Eterna round: R95, input ligand: microRNA oligo, concentration not stated.
[3] abbreviates: Eterna round: R95, input ligand: none.
The mark [4] stands for this setting: input ligand: microRNA oligo, concentration not stated.

Turning to “GGGAGACAUGAGGAUCACCCAUGUGGGAGGGAACGAGGAUAUGUAAGGAGAAAGAAUAGAACAGAAGGCGUAGGUG [JR_SS1_Sub021] (puzzle: Same State 1)”, the “apparent KD of MS2 coat protein” value reads like this: under setting [1], 0.0358 µM; under setting [2], 0.0555 µM; under setting [3], 0.0608 µM.

Regarding “CGUCCAGCCUGAGCUGGACAAAAGCAUGUACAUGAGGAUCACCCAUGUUCAUGUACAAGCUUUUUGCUCGUCUUAUG [salish99_208a_r3_054] (Eterna round: R96, puzzle: Sensor for hsa-mir-208a)”, the “apparent KD of MS2 coat protein” value is, setting by setting: (input ligand: FMN 200 uM) 0.485 µM; under setting [4], 0.0164 µM; (input ligand: none) 0.607 µM.

Take “UUAUUAUACGUAGGAUAUUGAUGAUUGAUAGUACAAGAAGGACGAACAUGAGGAUCACCCAUGUAUAUUAAAAUGAGUUUGAAU [JR_SSNG1_Sub077] (Eterna round: R96, puzzle: Same State NG 1)”: the “apparent KD of MS2 coat protein” value runs as follows: (input ligand: FMN 200 uM) 0.0728 µM; under setting [4], 0.0528 µM; (input ligand: none) 0.0551 µM.

Take “CCAUAGUACAAUUUAGAUCUACAUGAGGAUCACCCAUGUACUGAGGAUAUCAGCUCGAUUAGAGCUGAGAAGGCAGAAGUACUU [SSNG3/6-A2] (Eterna round: R96, puzzle: Same State NG 3)”: the “apparent KD of MS2 coat protein” value by setting is: (input ligand: FMN 200 uM) 0.0393 µM; under setting [4], 0.0646 µM; (input ligand: none) 0.0811 µM.

As to “GUUACAUGAGGAUCACCCAUGUAUGUGUGGGAGUAAGUGUCUUAGGAUAUCUAUGAUUUGAUUUAAGAGAAGGAAGAUUGUUGU [JMF's solution 78] (Eterna round: R96, puzzle: Same State NG 3)”, the “apparent KD of MS2 coat protein” value (input ligand: FMN 200 uM) amounted to 0.122 µM, the “apparent KD of MS2 coat protein” value under setting [4] amounted to 0.0809 µM and the “apparent KD of MS2 coat protein” value (input ligand: none) was found to be 0.11 µM.

Consider “UCUCGGGUCGUAGGAUAUGUAGGAUAUGUACAUGAGGAUCACCCAUGUCUACCAGAGACAGAAGGACAGAAGGACGAGCCACUC [pwkr ssNG2 2FMN 1F5s.5] (Eterna round: R96, puzzle: Same State NG 2)”, for which the “apparent KD of MS2 coat protein” value (input ligand: FMN 200 uM) worked out at 0.0252 µM, the “apparent KD of MS2 coat protein” value under setting [4] was 0.0422 µM and the “apparent KD of MS2 coat protein” value (input ligand: none) is 0.0555 µM.

As for “UUUACAUUACGAGGAUAUCAAUUAUUUCAUGUAUGAGAAGGCGUUAUUUUUACUACCUUACAUGAGGAUCACCCAUGUUUCAUU [JR_SSNG1_Sub041] (Eterna round: R96, puzzle: Same State NG 1)”, the “apparent KD of MS2 coat protein” value under setting [4] was 0.0403 µM.

“GGAGAACAUGAGGAUCACCCAUGUGAGAGGGAUGUAGGAUAUGUGAGGAGUAGAGGAGGGACAGAAGGACAGAGAU [JR_SS!_Sub069] (puzzle: Same State 1)”: the “apparent KD of MS2 coat protein” value is, setting by setting: under setting [1], 0.028 µM; under setting [2], 0.0629 µM; under setting [3], 0.0526 µM.

With “ACUUAGUACAAUUUAGAUCUACAUGAGGAUCACCCAUGUACUGAGGAUAUCAGCUCGAUUAGAGCUGAGAAGGCAGUAGUACUA [SSNG3/9-A2] (Eterna round: R96, puzzle: Same State NG 3)”, the “apparent KD of MS2 coat protein” value is, setting by setting: (input ligand: FMN 200 uM) 0.0333 µM; under setting [4], 0.035 µM; (input ligand: none) 0.0539 µM.

With “UAUGAACAUGAGGAUCACCCAUGUGGAAAGGACACAGGAUAUCACCUCGGACGUGCGAUGUGAGAAGGGUGAUGGU [Anrelari] (puzzle: Same State 1)”, the “apparent KD of MS2 coat protein” value stood at 0.26 µM under setting [1], 0.103 µM under setting [2] and 0.125 µM under setting [3].

In the case of “AAACAGCCGAACGGAGGGCCACAUGAGGAUCACCCAUGUACAUAGGAUAUCAUGCCAACGAGGCAUGAGAAGGGUGAUUAAAAC [Usinvema] (Eterna round: R96, puzzle: Same State NG 3)”, the “apparent KD of MS2 coat protein” value came to 0.0117 µM (input ligand: FMN 200 uM), 0.35 µM under setting [4] and 0.359 µM (input ligand: none).

Consider “ACAUGAGACCUAGGAUAUGUUGUACCUACAUGUGACAUGAGGAUCACCCAUGUGGUAAGUAUGAGACAGAAGGAGGAGAUAUGU [Equivalence 28 - Jieux - Same State NG 2] (Eterna round: R96, puzzle: Same State NG 2)”, for which the “apparent KD of MS2 coat protein” value was 0.0128 µM (input ligand: FMN 200 uM), 0.0212 µM under setting [4] and 0.032 µM (input ligand: none).

With “AUGGUCAAGUGUGAGGAUAUCCAUGCUCCCACAUGAGGAUCACCCAUGUCUUAAAGGGCGUAAAGGGAGAAGGUACGAACGCCAC [Edatxein] (Eterna round: R96, puzzle: Same State 2)”, the “apparent KD of MS2 coat protein” value was found to be 0.0731 µM (input ligand: FMN 200 uM), 0.0492 µM under setting [4] and 0.0806 µM (input ligand: none).

Consider “CUCAAAACAAGCUGCAGUGUUCGUCUUUCACAUGAGGAUCACCCAUGUAGUAGCCCAGUGGAAGCGCUCGGGCCACC [Eronrace] (puzzle: Sensor for hsa-mir-208a)”, for which the “apparent KD of MS2 coat protein” value came out at 0.055 µM under setting [1], 0.0249 µM under setting [2] and 0.0541 µM under setting [3].

Turning to “UGCAGCUACGUAGGAUAUCCGAAAGGAAGUGUAGGAGAAGGACGAGAGCCGCCUUACGUACAUGAGGAUCACCCAUGUAGUAGG [PowerStrip SSNG 1.22] (Eterna round: R96, puzzle: Same State NG 1)”, the “apparent KD of MS2 coat protein” value reads like this: (input ligand: FMN 200 uM) 0.0137 µM; under setting [4], 0.0218 µM; (input ligand: none) 0.0259 µM.

Regarding “AGCGAGAUAGGCGAGGAUAUGCUUUUUUGCACAUGAGGAUCACCCAUGUCUUUGUUUUUUGUUUUGCAGAAGGCGCAUUCUCUUU [ak unbound state multiloop] (puzzle: Same State 2)”, the “apparent KD of MS2 coat protein” value under setting [1] was 0.0327 µM, the “apparent KD of MS2 coat protein” value under setting [2] turned out to be 0.0143 µM and the “apparent KD of MS2 coat protein” value under setting [3] was determined as 0.0127 µM.

“UUACAGCACGGGUAGGAUAUGUAGGGUGGUACAUGAGGAUCACCCAUGUAUCCACCCUUCUAACGGCAGAAGGGCCUGUCGCUGC [Riarve] (Eterna round: R96, puzzle: Same State 2)”: the “apparent KD of MS2 coat protein” value was 0.0283 µM (input ligand: FMN 200 uM), 0.0112 µM under setting [4] and 0.0275 µM (input ligand: none).

Take “UGUCCAGCCUGAGCUGGACAAAAGCAUGUACAUGAGGAUCACCCAUGUUCAUGUACAAGCUUUUUGCUCGUCUUACU [salish99_208a_r3_081] (puzzle: Sensor for hsa-mir-208a)”: the “apparent KD of MS2 coat protein” value by setting is: under setting [1], 0.36 µM; under setting [2], 0.0141 µM; under setting [3], 0.471 µM.

As to “GAGAGAGGGUGAGGAUAUUUGGUGAUAAUGAUGGGAGAAGGCACAGACAUGAGGAUCACCCAUGUGGGAAUAAUCCAGAGAGAG [Parity 11 - Jieux - Same State NG 1] (Eterna round: R96, puzzle: Same State NG 1)”, the “apparent KD of MS2 coat protein” value is 0.582 µM (input ligand: FMN 200 uM), 0.182 µM under setting [4] and 0.41 µM (input ligand: none).

Consider “AUUUAACAAGCUUUUUGCUCGUCUUAUAAACAUGAGGAUCACCCAUGUAAUAGCGUGAGAGUAAAUAAUUAAAUAAU [JMF 89] (puzzle: Sensor for hsa-mir-208a)”, for which the “apparent KD of MS2 coat protein” value under setting [1] is 0.0133 µM, the “apparent KD of MS2 coat protein” value under setting [2] is 0.0507 µM and the “apparent KD of MS2 coat protein” value under setting [3] stood at 0.00991 µM.

As for “GGUAGGUUACUACCAAUCUACAUGAGGAUCACCCAUGUGUAGGAGGAUAUGGUACCUAUUUGGUACCAGAAGGCCUUAUUAAUU [Fiskers NG3ss - 10] (Eterna round: R96, puzzle: Same State NG 3)”, the “apparent KD of MS2 coat protein” value by setting is: (input ligand: FMN 200 uM) 0.143 µM; under setting [4], 0.0818 µM; (input ligand: none) 0.0988 µM.

As for “GGAGAACAUGAGGAUCACCCAUGUAAGAGAAGUGUAGGAUAUGUGAGGAGCAGAGGAGGAACAGAAGGACAUGGAG [JR_SS!_Sub071] (puzzle: Same State 1)”, the “apparent KD of MS2 coat protein” value stood at 0.0298 µM under setting [1], 0.041 µM under setting [2] and 0.0583 µM under setting [3].

“UGGCUCAGACUAGGAUAUAUGUGGUCACAUGAGGAUCACCCAUGUCUCGAGCUUCGGCUCGAGGCAUAGAAGGAGUCUGAGCCA [SSNG2/5-D2] (Eterna round: R96, puzzle: Same State NG 2)”: the “apparent KD of MS2 coat protein” value is 1.54 µM (input ligand: FMN 200 uM), 0.329 µM under setting [4] and 0.0265 µM (input ligand: none).

With “GAGAGACGAUUAGGAUAUACAGUGAUAAUGAUAGUAGAAGGAAUUGACAUGAGGAUCACCCAUGUAGGACUAAUCCAGAGAGAG [Parity 27 - Jieux - Same State NG 1] (Eterna round: R96, puzzle: Same State NG 1)”, the “apparent KD of MS2 coat protein” value runs as follows: (input ligand: FMN 200 uM) 0.046 µM; under setting [4], 0.0364 µM; (input ligand: none) 0.0522 µM.

Consider “GCUAGAAUUAAAGCCAACAUGAGGAUCACCCAUGUAUGUUGGUAGGAUAUCGUUUGCUUUGCAAACGAGAAGGGCUAAUCUAGC [JL SSNG3 1.22] (Eterna round: R96, puzzle: Same State NG 3)”, for which the “apparent KD of MS2 coat protein” value (input ligand: FMN 200 uM) was found to be 0.0624 µM, the “apparent KD of MS2 coat protein” value under setting [4] came out at 0.0598 µM and the “apparent KD of MS2 coat protein” value (input ligand: none) is 0.0692 µM.

On to “AUAUAACAUGAGGAUCACCCAUGUCAACAAAGUCGAGGAUAUGGGCAAAUAAAAUAAGAACCAGAAGGCGAAUAAU [salish99_ss1_r3_047] (Eterna round: R96, puzzle: Same State 1)”, for which the “apparent KD of MS2 coat protein” value under setting [4] was found to be 0.189 µM.

With “GACAAUCUAUCUGAGGAUAUCAUGAAAAAAACAUGAGGAUCACCCAUGUGCAGGAAAACUGCAUAUGAGAAGGCAGAUAGAUUGG [salish99_SS2_r3_011] (puzzle: Same State 2)”, the “apparent KD of MS2 coat protein” value worked out at 0.0312 µM under setting [1], 0.485 µM under setting [2] and 0.613 µM under setting [3].

Regarding “AGUGGACAUGAGGAUCACCCAUGUAUGCUGGCAUGAGGAUAUCCGAUUCGUUUCGACUAAGGAGAAGGCAUAGCCC [Geonla] (Eterna round: R96, puzzle: Same State 1)”, the “apparent KD of MS2 coat protein” value (input ligand: FMN 200 uM) turned out to be 0.037 µM, the “apparent KD of MS2 coat protein” value under setting [4] was 0.0989 µM and the “apparent KD of MS2 coat protein” value (input ligand: none) was determined as 0.116 µM.
